# Test results: IntAct's records for PubMed 20511297
# B1: Thioredoxin-like protein CITRX, chloroplastic (Arabidopsis thaliana (Mouse-ear cress)), Q9M7X9 (parent)
# chain: MALVQSRTFPHLNTPLSPILSSLHAPSSLFIRREIRPVAAPFSSSTAGNLPFSPLTRPRKLLCPPPRGKFVREDYLVKKLSAQELQELVKGDRKVPLIVDFYATWCGPCILMAQELEMLAVEYESNAIIVKVDTDDEYEFARDMQVRGLPTLFFISPDPSKDAIRTEGLIPLQMMHDIIDNEM
# partner: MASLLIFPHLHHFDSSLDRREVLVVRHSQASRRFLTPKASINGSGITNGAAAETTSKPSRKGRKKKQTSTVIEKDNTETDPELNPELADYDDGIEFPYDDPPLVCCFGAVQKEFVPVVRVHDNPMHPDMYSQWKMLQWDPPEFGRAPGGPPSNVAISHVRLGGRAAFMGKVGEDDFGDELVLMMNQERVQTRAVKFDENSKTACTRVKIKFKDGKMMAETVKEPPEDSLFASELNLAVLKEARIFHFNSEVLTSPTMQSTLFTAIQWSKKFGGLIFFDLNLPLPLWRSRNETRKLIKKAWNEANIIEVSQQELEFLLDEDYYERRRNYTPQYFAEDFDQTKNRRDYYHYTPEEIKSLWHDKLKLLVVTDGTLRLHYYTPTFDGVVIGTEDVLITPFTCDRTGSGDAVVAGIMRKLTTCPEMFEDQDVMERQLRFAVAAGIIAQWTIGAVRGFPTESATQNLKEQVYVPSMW
# B2: Thioredoxin-like protein CITRX, chloroplastic (Arabidopsis thaliana (Mouse-ear cress)), Q9M7X9 (parent)
# chain: B1 chain
# partner: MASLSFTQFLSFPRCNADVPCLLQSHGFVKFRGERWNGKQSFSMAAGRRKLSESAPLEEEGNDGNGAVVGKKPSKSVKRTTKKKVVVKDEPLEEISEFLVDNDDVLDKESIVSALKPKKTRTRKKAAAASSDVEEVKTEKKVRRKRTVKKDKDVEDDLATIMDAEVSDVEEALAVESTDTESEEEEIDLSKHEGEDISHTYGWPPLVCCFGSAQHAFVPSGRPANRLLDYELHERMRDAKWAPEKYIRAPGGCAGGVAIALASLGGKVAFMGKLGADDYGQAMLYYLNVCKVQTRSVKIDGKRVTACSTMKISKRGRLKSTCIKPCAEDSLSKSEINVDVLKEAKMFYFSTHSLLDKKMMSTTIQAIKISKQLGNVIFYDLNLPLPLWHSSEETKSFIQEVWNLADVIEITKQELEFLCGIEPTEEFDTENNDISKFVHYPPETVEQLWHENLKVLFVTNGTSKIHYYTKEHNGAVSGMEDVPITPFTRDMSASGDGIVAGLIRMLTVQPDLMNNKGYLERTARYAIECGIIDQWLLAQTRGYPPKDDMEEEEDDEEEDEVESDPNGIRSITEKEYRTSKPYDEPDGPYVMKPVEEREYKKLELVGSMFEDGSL
# B3: Fructokinase-like 2, chloroplastic (Arabidopsis thaliana (Mouse-ear cress)), F4I0K2 (parent)
# chain: B2 partner
# partner: B1 chain
# B4: Fructokinase-like 1, chloroplastic (Arabidopsis thaliana (Mouse-ear cress)), Q9M394 (parent)
# chain: B1 partner
# partner: B1 chain
# Variants of: B1
# Details: with sckl1_arath FLN1, Q9M394
row,effect of a mutation on the interaction,Variant
1,decreasing interaction,MALVQSRTFPHLNTPLSPILSSLHAPSSLFIRREIRPVAAPFSSSTAGNLPFSPLTRPRKLLCPPPRGKFVREDYLVKKLSAQELQELVKGDRKVPLIVDFYATWSGPCILMAQELEMLAVEYESNAIIVKVDTDDEYEFARDMQVRGLPTLFFISPDPSKDAIRTEGLIPLQMMHDIIDNEM [C106S]

# Variants of: B2
# Details: with sckl2_arath FLN2, F4I0K2
row,effect of a mutation on the interaction,Variant
1,decreasing interaction,MALVQSRTFPHLNTPLSPILSSLHAPSSLFIRREIRPVAAPFSSSTAGNLPFSPLTRPRKLLCPPPRGKFVREDYLVKKLSAQELQELVKGDRKVPLIVDFYATWSGPCILMAQELEMLAVEYESNAIIVKVDTDDEYEFARDMQVRGLPTLFFISPDPSKDAIRTEGLIPLQMMHDIIDNEM [C106S]

# Variants of: B3
# Details: with citrx_arath CITRX, Q9M7X9
row,effect of a mutation on the interaction,Variant
1,disrupting interaction,C208A;C209A
2,decreasing interaction,C209A
3,decreasing interaction,C208A

# Variants of: B4
# Details: with citrx_arath CITRX, Q9M7X9
row,effect of a mutation on the interaction,Variant
1,decreasing interaction,MASLLIFPHLHHFDSSLDRREVLVVRHSQASRRFLTPKASINGSGITNGAAAETTSKPSRKGRKKKQTSTVIEKDNTETDPELNPELADYDDGIEFPYDDPPLVCAFGAVQKEFVPVVRVHDNPMHPDMYSQWKMLQWDPPEFGRAPGGPPSNVAISHVRLGGRAAFMGKVGEDDFGDELVLMMNQERVQTRAVKFDENSKTACTRVKIKFKDGKMMAETVKEPPEDSLFASELNLAVLKEARIFHFNSEVLTSPTMQSTLFTAIQWSKKFGGLIFFDLNLPLPLWRSRNETRKLIKKAWNEANIIEVSQQELEFLLDEDYYERRRNYTPQYFAEDFDQTKNRRDYYHYTPEEIKSLWHDKLKLLVVTDGTLRLHYYTPTFDGVVIGTEDVLITPFTCDRTGSGDAVVAGIMRKLTTCPEMFEDQDVMERQLRFAVAAGIIAQWTIGAVRGFPTESATQNLKEQVYVPSMW [C106A]
2,disrupting interaction,MASLLIFPHLHHFDSSLDRREVLVVRHSQASRRFLTPKASINGSGITNGAAAETTSKPSRKGRKKKQTSTVIEKDNTETDPELNPELADYDDGIEFPYDDPPLVASFGAVQKEFVPVVRVHDNPMHPDMYSQWKMLQWDPPEFGRAPGGPPSNVAISHVRLGGRAAFMGKVGEDDFGDELVLMMNQERVQTRAVKFDENSKTACTRVKIKFKDGKMMAETVKEPPEDSLFASELNLAVLKEARIFHFNSEVLTSPTMQSTLFTAIQWSKKFGGLIFFDLNLPLPLWRSRNETRKLIKKAWNEANIIEVSQQELEFLLDEDYYERRRNYTPQYFAEDFDQTKNRRDYYHYTPEEIKSLWHDKLKLLVVTDGTLRLHYYTPTFDGVVIGTEDVLITPFTCDRTGSGDAVVAGIMRKLTTCPEMFEDQDVMERQLRFAVAAGIIAQWTIGAVRGFPTESATQNLKEQVYVPSMW [C105A;C106S]
